Read-outs that look alike come from different tables or passages of the source.
What was measured:
YPet [1] = assay: FRET or BRET
YPet [2] = assay: FRET or BRET; remark: listed apart in the source

Row | FRET efficiency, oxidized (0 mmol/L DTT) (YPet [1]) | FRET efficiency, reduced (10 mmol/L DTT) (YPet [1]) | FRET efficiency, oxidized (0 mmol/L DTT) (YPet [2]) | FRET efficiency, reduced (10 mmol/L DTT) (YPet [2]) | Substance
1 | 0.27 | 0.265 | 0.371 | 0.375 | CyPet
2 | 0.288 | 0.376 |  |  | ECFP

Reference: publication PMC3158092
